Here are results for 1 molecule from US20130177528A1, “COMPOSITIONS AND METHODS FOR INHIBITING VIRAL INFECTION” (WESTERN UNIVERSITY OF HEALTH SCIENCES, priority 2011, published 2013).

Holding throughout (assay type): cell-based, herpes simplex virus type-1
For data set [1], the system named is HSV-1 (KOS) gL86. The experiment in a line: HSV-1 entry into gD receptor expressing CHO-K1 cells, cells pre-incubated with CN (Example 8). The following applies: for HSV-1 viral entry (β-galactosidase activity, OD 410): 25 pfu/cell, 6 h. On the procedure: In this experiment, Chinese hamster ovary (CHO-K1) cells expressing glycoprotein D (gD) receptors: (A) 3-OST-3, (B) herpesvirus entry mediator and (C) nectin-1 were pre-incubated with contortrostatin (CN) at indicated concentrations or mock-treated (positive control [+]) with phosphate saline buffer for 90 min at room temperature. This treatment was followed by infection with β-galactosidase-expressing recombinant virus herpes simplex virus type-1 (HSV-1; KOS) gL86 (25 pfu/cell). Uninfected cells were kept as negative control (−). After 6 h, the cells were washed, permeabilized and incubated with o-nitro-phenyl-β-o-galactopyranoside (ONPG) substrated (3.0 mg/ml) for quantitation of β-galactosidase activity expressed from the input viral genome. The enzymatic activity was measured at an optical density of 410 nm (OD 410). Error bars represent SD. a=significant difference from controls and/or treatments (P<0.05, t-test).
Viral Entry Assay. Viral entry assays were based on quantitation of β-galactosidase expressed from the viral genome in which β-galactosidase expression is inducible by HSV infection. Cells were transiently transfected in 6-well tissue culture dishes, using Lipofectamine 2000 (In vitrogen Corp) with plasmids expressing HSV-1 entry receptors (necitn-1, HVEM and 3-OST-3 expression plasmids) at 1.5 μg per well in 1 ml. At 24 hr post-transfection, cells were re-plated in 96-well tissue culture dishes (2×10^4 cells per well) at least 16 hr prior to infection. Cells were washed and exposed to serially dilute pre-incubated virus with […] or with 1×PBS at two fold dilutions for 2 hr at room temperature. In a parallel experiment the cells were also pre-incubated with NBE for 2 hr at room temperature before infection with virus. Later the cells were washed with 1×PBS and allowed 6 hr at 37° C. before solubilization in 100 μl of PBS containing 0.5% NP-40 and the -galactosidase substrate, o-nitro-phenyl-D-galactopyranoside (ONPG; ImmunoPure, PIERCE, Rockford, Ill., 3 mg/ml). The enzymatic activity was monitored at 410 nm by spectrophotometry at several time points after the addition of ONPG in order to define the interval over which the generation of the product was linear with time. Microscopy was performed using 20×objective of the microscope (Nikon). The slide book version 3.0 was used for images. All experiments were repeated a minimum of three times.
To determine the effect of CN on HSV-1 entry, we first tested the ability of HSV-1 in the presence and absence of CN to infect CHO-KI cells expressing gD receptors. HSV-1 entry into cells was determined by using β-galactosidase expressing HSV-1 reporter virus (gL86).

In data set [2] the test system is HSV-1 (KOS) gL86. The experiment in a line: HSV-1 infection of HeLa cells at MOIs 5, 15 and 25 PFU/cell (Example 6). The following applies: virus pre-incubated 180 min, 6 hr. On the procedure:
HeLa cells were each grown to 100% confluency in 96-well plates. The β-galactosidase-expressing recombinant virus HSV-1 (KOS) HSV-1 gL86 […] was pre-incubated at MOIs of 5 (FIG. 10, panel A), 15 (FIG. 10, panel B) and 25 (FIG. 10, panel C) plaque-forming units per cell (PFU) with VCN (VN), CN or ADAM15 (Ad15) at the concentrations indicated or mock treated with 1 X phosphate saline buffer for 180 min at room temperature. After 6 hr, the cells were washed, permeabilized and incubated with ONPG substrate (3.0 mg/ml). The β-gal enzymatic activity was measured at an optical density of 410 nm (OD 410). Mock treated HSV-1 with PBS was used as a […] control ((+) infected with virus alone; (−) uninfected control).

Data set [3] deals with HSV-1 strains F, G and MP. The experiment in a line: Entry of clinical HSV-1 strains into nectin-1 CHO Ig8 cells, cells pre-incubated with CN (Example 10). As to conditions: nectin-1 CHO Ig8 cells pre-incubated with 10 μM, MP at 25 pfu/cell, 6 h. On the procedure: (A) In this experiment nectin-1 Chinese hamster ovary (CHO) Ig8 cells that express β-galactosidase upon viral entry were pre-treated with 10 μM contortrostatin (CN; indicated as treated [Tr]) or mock treated (indicated as untreated [Un]) with phosphate saline buffer for 90 min at room temperature followed by infection using clinical isolates of herpes simplex virus type-1 (HSV-1; F,G, and MP at 25 pfu/cell) for 6 h. The viral entry blocking was measured by o-nitro-phenyl-β-o-galactopyranoside (ONPG) assay as previously described. Error bars represent SD. (B) Confluent monolayers of HeLa cells were infected with HSV-1 (804) strain at 0.01 PFU/cell in presence (panel i) and absence (panel ii) of CN for 2 h at 37° C. Viral replication in HeLa cells were visualized 24 h post-infection for plaques. a=significant differences from corresponding mock-treated controls (P<0.05, t-test).
The next question was to evaluate the broader significance of CN as an anti-HSV agent. Therefore the ability of CN to block viral entry in different clinical virulent strains of HSV-1 (F, G and MP) was tested. Here, nectin-1 expressing CHO Ig8 cells that express β-galactosidase upon viral entry were used. The cells were preincubated with CN at 10 μM and then infected with clinical isolates of HSV-1.

Data set [4] concerns HSV-1 (KOS) gL86. The experiment in a line: HSV-1 infection of HeLa, Vero and 293T cells, virus pre-incubated (Example 3). The following applies: virus 30 pfu/cell pre-incubated 90 min, 6 hr. On the procedure:
CN blocks herpes simplex virus type-1 (HSV-1) infection of natural target cells. HeLa, Vero and 293T cells were each grown to 100% confluency in 96-well plates. The β-galactosidase-expressing recombinant virus HSV-1 (KOS) HSV-1 gL86 (30 pfu/cell) was pre-incubated with CN at the concentration indicated in FIG. 7 or mock treated with 1 X phosphate saline buffer for 90 min at room temperature. After 6 hr, the cells were washed, permeabilized and incubated with ONPG substrate (3.0 mg/ml). The β-gal enzymatic activity was measured at an optical density of 410 nm (OD 410). Each value shown in FIG. 7 is the mean of three or more determinations (±SD). Mock treated HSV-1 with PBS was used as a control. HSV-1 infection of HeLa (panel A) and Vero and 293T cells (panel B) was blocked by CN.

B1: contortrostatin (protein)
chain: DAPANPCCDAATCKLTTGSQCADGLCCDQCKFMKEGTVCRRARGDDLDDYCNGISAGCPRNPFHA
As for B1, the “HSV-1 viral entry (β-galactosidase activity, OD 410)” value in data set [1] (CHO-K1 cells expressing 3-OST-3 pre-incubated 90 min), in data set [1] (CHO-K1 cells expressing HVEM pre-incubated 90 min) and in data set [1] (CHO-K1 cells expressing nectin-1 pre-incubated 90 min) was “significantly blocked viral emry in a dose-dependent manner” each time. The “concentrations at which entry blocking activity was pronounced” value in data set [1] (gD-receptor expressing CHO-K1 cells) is “micromolar concentrations”. Also, the “HSV-1 infection of HeLa cells, blocking and rank order (β-gal activity, OD 410)” value in data set [2] is on record as “blocked by CN >VCN >ADAM15”. Also, the “entry of clinical HSV-1 strains (ONPG assay)” value in data set [3] is “blocked the entry of different strains of HSV-1”. The “HSV-1 infection (β-gal activity, OD 410)” value in data set [4] (293T cells), in data set [4] (HeLa cells) and in data set [4] (Vero cells) was “blocked” each time.
